Biological target: T1, N-terminal cytosolic domain of Band 3 (residues 1–395) (human, UniProt P02730 1-395)
T1 sequence (looked up): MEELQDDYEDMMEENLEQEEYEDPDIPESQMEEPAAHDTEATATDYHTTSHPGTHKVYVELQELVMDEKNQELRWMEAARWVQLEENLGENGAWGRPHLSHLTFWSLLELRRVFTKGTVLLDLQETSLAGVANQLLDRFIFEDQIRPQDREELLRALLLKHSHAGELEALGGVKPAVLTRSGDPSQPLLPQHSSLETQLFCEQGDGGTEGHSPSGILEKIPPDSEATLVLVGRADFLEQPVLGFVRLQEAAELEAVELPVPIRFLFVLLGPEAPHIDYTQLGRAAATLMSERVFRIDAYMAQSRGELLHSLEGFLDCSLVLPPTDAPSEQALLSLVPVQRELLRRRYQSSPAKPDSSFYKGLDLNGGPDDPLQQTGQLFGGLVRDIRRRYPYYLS
Assay: ITC

B1: recombinantly-expressed human GAPDH (enzyme)
chain: not shown
Q: B1 was tested. Which Kd did it give?
A: 1.18 µM
